Patent publication US20060121465A1, “Sgk and nedd used as diagnostic and therapeutic targets” (priority 2002, published 2006)
Numbering of substitutions follows the chain as printed.

B1: Sgk2: isoform of Sgk, coexpressed in oocytes (protein, UniProt Q9HBY8 1-367, looked up)
Serine/threonine-protein …: MNSSPAGTPSPQPSRANGNINLGPSANPNAQPTDFDFLKVIGKGNYGKVLLAKRKSDGAFYAVKVLQKKSILKKKEQSHIMAERSVLLKNVRHPFLVGLRYSFQTPEKLYFVLDYVNGGELFFHLQRERRFLEPRARFYAAEVASAIGYLHSLNIIYRDLKPENILLDCQGHVVLTDFGLCKEGVEPEDTTSTFCGTPEYLAPEVLRKEPYDRAVDWWCLGAVLYEMLHGLPPFYSQDVSQMYENILHQPLQIPGGRTVAACDLLQSLLHKDQRQRLGSKADFLEIKNHVFFSPINWDDLYHKRLTPPFNPNVTGPADLKHFDPEFTQEAVSKSIGCTPDTVASSSGASSAFLGFSYAPEDDDILDC
B2: Sgk3: wild-type Sgk isoform 3, expressed from injected cRNA (protein, UniProt Q96BR1 1-496, looked up)
Serine/threonine-protein …: MQRDHTMDYKESCPSVSIPSSDEHREKKKRFTVYKVLVSVGRSEWFVFRRYAEFDKLYNTLKKQFPAMALKIPAKRIFGDNFDPDFIKQRRAGLNEFIQNLVRYPELYNHPDVRAFLQMDSPKHQSDPSEDEDERSSQKLHSTSQNINLGPSGNPHAKPTDFDFLKVIGKGSFGKVLLAKRKLDGKFYAVKVLQKKIVLNRKEQKHIMAERNVLLKNVKHPFLVGLHYSFQTTEKLYFVLDFVNGGELFFHLQRERSFPEHRARFYAAEIASALGYLHSIKIVYRDLKPENILLDSVGHVVLTDFGLCKEGIAISDTTTTFCGTPEYLAPEVIRKQPYDNTVDWWCLGAVLYEMLYGLPPFYCRDVAEMYDNILHKPLSLRPGVSLTAWSILEELLEKDRQNRLGAKEDFLEIQNHPFFESLSWADLVQKKIPPPFNPNVAGPDDIRNFDTAFTEETVPYSVCVSSDYSIVNASVLEADDAFVGFSYAPPSEDLFL
B3: Sgk1: wild-type serum- and glucocorticoid-dependent kinase 1, expressed from injected human sgk1 cRNA (protein, UniProt O00141 1-431, looked up)
Serine/threonine-protein …: MTVKTEAAKGTLTYSRMRGMVAILIAFMKQRRMGLNDFIQKIANNSYACKHPEVQSILKISQPQEPELMNANPSPPPSPSQQINLGPSSNPHAKPSDFHFLKVIGKGSFGKVLLARHKAEEVFYAVKVLQKKAILKKKEEKHIMSERNVLLKNVKHPFLVGLHFSFQTADKLYFVLDYINGGELFYHLQRERCFLEPRARFYAAEIASALGYLHSLNIVYRDLKPENILLDSQGHIVLTDFGLCKENIEHNSTTSTFCGTPEYLAPEVLHKQPYDRTVDWWCLGAVLYEMLYGLPPFYSRNTAEMYDNILNKPLQLKPNITNSARHLLEGLLQKDRTKRLGAKDDFMEIKSHVFFSLINWDDLINKKITPPFNPNVSGPNDLRHFDPEFTEEPVPNSIGKSPDSVLVTASVKEAAEAFLGFSYAPPTDSFL
B4: ^K127NSgk1: inactive Sgk1 mutant, expressed from injected cRNA (protein, UniProt O00141 1-431, looked up, variant K127N)
Serine/threonine-protein …: B3 Serine/threonine-protein … with K127N
B5: ^S422DSgk1: constitutively active Sgk1 mutant (serine 422 to aspartate), expressed from injected cRNA (protein, UniProt O00141 1-431, looked up, variant S422D)
Serine/threonine-protein …: B3 Serine/threonine-protein … with S422D

Target: T1, Sglt1 (Homo sapiens, UniProt P13866)
T1 construct: expressed in transfected cells; host or cells: Xenopus laevis oocytes injected with in vitro synthesized cRNA
T1 sequence (P13866 1-664): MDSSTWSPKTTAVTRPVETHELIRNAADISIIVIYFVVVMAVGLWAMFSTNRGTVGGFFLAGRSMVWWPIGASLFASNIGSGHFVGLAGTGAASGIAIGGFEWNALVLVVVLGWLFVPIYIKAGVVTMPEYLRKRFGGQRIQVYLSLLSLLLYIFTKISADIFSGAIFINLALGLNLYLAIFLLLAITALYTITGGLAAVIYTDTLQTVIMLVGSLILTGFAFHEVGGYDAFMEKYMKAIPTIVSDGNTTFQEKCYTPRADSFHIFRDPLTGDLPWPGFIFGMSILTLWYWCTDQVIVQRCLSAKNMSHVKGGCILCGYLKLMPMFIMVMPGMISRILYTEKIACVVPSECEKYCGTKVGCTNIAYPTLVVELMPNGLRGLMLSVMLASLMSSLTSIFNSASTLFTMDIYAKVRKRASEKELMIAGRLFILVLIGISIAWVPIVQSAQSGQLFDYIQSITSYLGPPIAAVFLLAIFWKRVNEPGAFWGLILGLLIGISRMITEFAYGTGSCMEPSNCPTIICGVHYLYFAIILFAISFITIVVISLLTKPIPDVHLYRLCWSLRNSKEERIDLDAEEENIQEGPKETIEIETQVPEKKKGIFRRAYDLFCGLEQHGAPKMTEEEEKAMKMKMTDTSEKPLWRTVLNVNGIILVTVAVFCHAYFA
Test: Two-electrode voltage clamp of glucose-induced currents in Xenopus laevis oocytes expressing Sglt1
Assay type: cell-based
Details: for stimulation of glucose transport by additional coexpression: further series of experiments (FIG. 5); for effect on currents induced by glucose (in words): oocytes expressing Sglt1
From the text: cRNAs encoding wild-type Sgk1 [Waldegger S, Barth P, Raber G, Lang F: Cloning and characterization of a putative human serine/threonine protein kinase transcriptionally modified during anisotonic and isotonic alterations of cell volume. […] Biochem J. 1999; 339: 319-28], wild-type Sgk3 and PKB [Kobayashi T, Deak M, Morrice N, Cohen P. Characterization of the structure and regulation of two novel isoforms of serum- and glucocorticoid-induced protein kinase. Biochem J. 1999; 334: 189-97], consitutively active ^T308D,S473DPKB [Alessi D R, Cohen P. Mechanism of activation and function of protein kinase B. Curr. Opin Genet Dev. 1998; 8: 55-62], wild-type Nedd4-2 [Debonneville C, Flores S Y, Kamynina E, Plant P J, Tauxe C, Thomas M A, Munster C, Chraibi A, Pratt J H, Horisberger J D, Pearce D, Loffing J, Staub O. Phosphorylation of Nedd4-2 by Sgk1 regulates epithelial Na(+) channel cell surface expression. EMBO J. 2001; 20: 7052-7059] and wild-type Sglt1 [Hediger M A, Coady M J, Ikeda T S, Wright E M. Expression cloning and cDNA sequencing of the Na^+/glucose co-transporter. Nature. 1987; 330: 379-381] were synthesized in vitro [Wagner C A, Friedrich B, Setiawan I, Lang F, Bröer S: The use of Xenopus laevis oocytes for the functional characterization of heterologously expressed membrane proteins. Cell Physiol Biochem 2000; 10: 1-12]. Dissection of the Xenopus laevis ovaries, and collection and treatment of the oocytes, have already been described in detail [Wagner C A, Friedrich B, Setiawan I, Lang F, Broer S: The use of Xenopus laevis oocytes for the functional characterization of heterologously expressed membrane proteins. Cell Physiol Biochem 2000; 10: 1-12]. The oocytes were injected with 5 ng of human sglt1, 7.5 ng of human sgk1, ^K127Nsgk1, ^S422Dsgk1, sgk3, PKB or ^T308D,S473DPKB, and/or with 5 ng of Xenopus nedd4-2. Control oocytes were injected with water. Electrophysiological experiments were carried out at room temperature for 3 days after the respective cRNAs had been injected. The currents which were induced by the extracellular administration of 20 mM or 5 mM glucose were measured using a two-electrode voltage clamp [Wagner C A, Friedrich B, Setiawan I, Lang F, Broer S: The use of Xenopus laevis oocytes for the functional characterization of heterologously expressed membrane proteins. Cell Physiol Biochem 2000; 10: 1-12] and taken as a measure of the glucose transport. The data were filtered at 10 Hz and analyzed using a MacLab Digital to Analog Converter and corresponding software (AD Instruments, Castle Hill, Australia). The control bath solution (ND 96) contained 96 mM NaCl, 2 mM KCl, 1.8 mM CaCl2, 1 mM MgCl2 and 5 mM HEPES, pH 7.4. All the substances were used at the stated concentrations. The final solutions were titrated with HCl or NaOH to the stated pH or pH 7.4. The flow rate of the superfusion solution was 20 ml/min and achieved complete change of solution within 10 s.
For the calculations, the data were quoted as arithmetic means±SEM. n is the number of oocytes investigated. All the experiments were carried out in at least three different groups of oocytes. Qualitatively similar data were obtained in all the repeats. The results were tested for significant differences using Student's t test. Only results giving P<0.05 were made use of as being statistically significant.

[1] = coexpressed with Sglt1 and Nedd4-2
[2] = further series of experiments (FIG. 5, procedure as in FIG. 4), coexpressed with Sglt1
[3] = 20 mM glucose, coexpressed with Sglt1, increase vs oocytes expressing Sglt1 on its own
[4] = 20 mM glucose, coexpressed with Sglt1 and Nedd4-2
[5] = 5 mM glucose, coexpressed with Sglt1 and Nedd4-2
[6] = 5 mM glucose, coexpressed with Sglt1 (FIG. 4)

Molecule	stimulation of glucose transport by additional coexpression [1]	glucose-induced current increased by coexpression [2]	glucose-induced current increased by coexpression [3]	glucose-induced current higher than in oocytes expressing Sglt1 on its own [4]	effect on currents induced by glucose (in words) (20 mM glucose, figure legends)	further results
PKB: wild-type protein kinase B, expressed from injected cRNA	107±20%	101±18%	–	–	–	–
^T308D,S473DPKB: constitutively active protein kinase B mutant, expressed from injected cRNA	–	–	117.4±15.8%	106.5±18.2%	stimulated the currents and reversed the effect of Nedd4-2	–
B1	no significant effect	no statistically significant effect	–	–	–	–
B2	114±26%	117±16%	123.6±15.0%	112.4±19.4%	stimulated the currents and reversed the effect of Nedd4-2	–
B3	–	–	81.3±19.0%	34.8±11.8%	stimulated the currents and reversed the effect of Nedd4-2	glucose-induced current more than in oocytes injected with Sglt1 and Nedd4-2 mRNA [5]: 126±23%; glucose-induced current more than in oocytes only injected with Sglt1 [5]: 61±21%; glucose-induced current (5 mM glucose, coexpressed with Sglt1 and Nedd4-2 (FIG. 4)): 60.5±9.9 nA
B4	–	–	–	–	–	change of substrate-induced current (20 mM glucose, coexpressed with Sglt1, signed change vs Sglt1 alone): −2.0±5.3%; glucose-induced current lower than in oocytes expressing Sglt1 on its own [4]: 54.9±9.7%
B5	48±11%	55±12%	72.4±9.1%	59.2±19.8%	stimulated the currents and reversed the effect of Nedd4-2	glucose-induced current (Iglc) [6]: 65.4±10.6 nA; increase of Iglc by coexpression [6]: 77±23%; effect on currents induced by glucose (in words) (5 mmol glucose, FIG. 4 legend): significantly increased
